Experimental data from patent US7196244.

Experiments:
[1] = target: T1, Mos1 transposase (Drosophila mauritiana) (UniProt Q7JQ07); experiment: cell_activity; conditions: glh-2 promoter, C. elegans germline
T1 sequence: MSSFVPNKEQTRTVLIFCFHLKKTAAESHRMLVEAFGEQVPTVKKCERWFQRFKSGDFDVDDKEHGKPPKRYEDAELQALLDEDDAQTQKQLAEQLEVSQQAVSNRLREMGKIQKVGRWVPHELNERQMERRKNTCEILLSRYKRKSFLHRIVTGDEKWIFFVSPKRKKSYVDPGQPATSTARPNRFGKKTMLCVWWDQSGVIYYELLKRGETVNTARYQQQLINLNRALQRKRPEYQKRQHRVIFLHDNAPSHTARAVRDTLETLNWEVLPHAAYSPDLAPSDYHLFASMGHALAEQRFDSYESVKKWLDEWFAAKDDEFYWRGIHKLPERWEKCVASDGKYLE

[2] = test system: TC3A transposase (Caenorhabditis elegans); experiment: cell_activity; conditions: ced-9 promoter; 0.1% with glh-2 promoter

| Substance | activity (% chromosomes with catastrophic excision) [1] | activity (% germline reversion) [2] |
| --- | --- | --- |
| Mos1 transposon in integrated array oxIs25 | 20.9 |  |
| Tc3 element in unc-22(r750::Tc3) |  | 2 |
